Read-outs that look alike come from different tables or passages of the source.
What was measured:
Experiment in all cases: cell-based or functional assay
[1] = molecular target: TSHR with Arg109 mutated to Ala, expressed in CHO cells (human) (UniProt P16473)
[2] = molecular target: TSHR with Gln235 mutated to Ala expressed in CHO cells (human) (UniProt P16473)
[3] = molecular target: wild type TSHR expressed in CHO cells (human) (UniProt P16473)
[4] = molecular target: wild type TSHR (human) (UniProt P16473)
[5] = molecular target: TSHR with Tyr185 mutated to Ala (human) (UniProt P16473)
[6] = molecular target: TSHR with Asp151 mutated to Ala, expressed in CHO cells (human) (UniProt P16473)
[7] = molecular target: wild type TSHR (human TSH receptor, full length) expressed in CHO cells (human) (UniProt P16473)
[8] = molecular target: TSHR with Lys129 mutated to Ala, expressed in CHO cells (human) (UniProt P16473)
[9] = molecular target: TSHR with Arg80 mutated to Ala expressed in CHO cells (human) (UniProt P16473)
[10] = molecular target: wild type human TSHR (full length) expressed in CHO cells (human) (UniProt P16473)

% inhibition of TSH stimulation; 5B3 10 µg/mL; Experiment 1 [1]: 0%
% inhibition of TSH stimulation; 5B3 10 µg/mL; Experiment 2 [1]: 0%
% inhibition of TSH stimulation; 5B3 100 µg/mL; Experiment 1 [1]: 0%
% inhibition of TSH stimulation; 5B3 100 µg/mL; Experiment 2 [1]: 0%
Cyclic AMP produced; 5B3 10 µg/mL + TSH 3 ng/mL; Experiment 1 [1]: 34.4 pmol/mL
Cyclic AMP produced; 5B3 10 µg/mL + TSH 3 ng/mL; Experiment 2 [1]: 60.6 pmol/mL
Cyclic AMP produced; 5B3 100 µg/mL + TSH 3 ng/mL; Experiment 1 [1]: 34.5 pmol/mL
Cyclic AMP produced; 5B3 100 µg/mL + TSH 3 ng/mL; Experiment 2 [1]: 56.6 pmol/mL
Mutated/wild type (%) of cyclic AMP produced; 5B3 10 µg/mL + TSH 3 ng/mL; Experiment 1 [1]: 52%
Mutated/wild type (%) of cyclic AMP produced; 5B3 10 µg/mL + TSH 3 ng/mL; Experiment 2 [1]: 88%
Mutated/wild type (%) of cyclic AMP produced; 5B3 100 µg/mL + TSH 3 ng/mL; Experiment 1 [1]: 50%
Mutated/wild type (%) of cyclic AMP produced; 5B3 100 µg/mL + TSH 3 ng/mL; Experiment 2 [1]: 85%
Experiment 1: % inhibition of TSH stimulation; 5B3 10 µg/mL [2]: 0%
Experiment 1: % inhibition of TSH stimulation; 5B3 100 µg/mL [2]: 0%
Experiment 1: Mutated/wild type (%) of cyclic AMP produced; 5B3 10 µg/mL + TSH 3 ng/mL [2]: 80%
Experiment 1: Mutated/wild type (%) of cyclic AMP produced; 5B3 100 µg/mL + TSH 3 ng/mL [2]: 63%
Experiment 2: % inhibition of TSH stimulation; 5B3 10 µg/mL [2]: 14%
Experiment 2: % inhibition of TSH stimulation; 5B3 100 µg/mL [2]: 0%
Experiment 2: Mutated/wild type (%) of cyclic AMP produced; 5B3 10 µg/mL + TSH 3 ng/mL [2]: 77%
Experiment 2: Mutated/wild type (%) of cyclic AMP produced; 5B3 100 µg/mL + TSH 3 ng/mL [2]: 95%
% inhibition of TSH stimulation (stimulator given as M22), wild type TSHR; 5B3 10 µg/mL [3]: 0%
% inhibition of TSH stimulation (stimulator given as M22), wild type TSHR; 5B3 100 µg/mL [3]: 0%
% inhibition of TSH stimulation, wild type TSHR; 5B3 10 µg/mL [3]: 0%
% inhibition of TSH stimulation, wild type TSHR; 5B3 100 µg/mL [3]: 0%
% inhibition of TSH stimulation; 5B3 10 µg/mL [3]: 0%
% inhibition of TSH stimulation; 5B3 10 µg/mL; Experiment 1 [3]: 0%
% inhibition of TSH stimulation; 5B3 10 µg/mL; Experiment 2 [3]: 0%
% inhibition of TSH stimulation; 5B3 100 µg/mL [3]: 0%
% inhibition of TSH stimulation; 5B3 100 µg/mL; Experiment 1 [3]: 0%
% inhibition of TSH stimulation; 5B3 100 µg/mL; Experiment 2 [3]: 8%
Cyclic AMP produced; 5B3 10 µg/mL + TSH 3 ng/mL [3]: 103 pmol/mL
Cyclic AMP produced; 5B3 10 µg/mL + TSH 3 ng/mL; Experiment 1 [3]: 82.8 pmol/mL
Cyclic AMP produced; 5B3 10 µg/mL + TSH 3 ng/mL; Experiment 2 [3]: 106 pmol/mL
Cyclic AMP produced; 5B3 100 µg/mL + TSH 3 ng/mL [3]: 94.8 pmol/mL
Cyclic AMP produced; 5B3 100 µg/mL + TSH 3 ng/mL; Experiment 1 [3]: 80.7 pmol/mL
Cyclic AMP produced; 5B3 100 µg/mL + TSH 3 ng/mL; Experiment 2 [3]: 90.4 pmol/mL
Experiment 1: % inhibition of TSH stimulation; 5B3 10 µg/mL [3]: 0%
Experiment 1: % inhibition of TSH stimulation; 5B3 100 µg/mL [3]: 0%
Experiment 1; % inhibition of TSH stimulation; 5B3 10 µg/mL [3]: 0%
Experiment 1; % inhibition of TSH stimulation; 5B3 100 µg/mL [3]: 7%
Experiment 1; cyclic AMP produced; 5B3 10 µg/mL + TSH 3 ng/mL [3]: 79.6 pmol/mL
Experiment 1; cyclic AMP produced; 5B3 100 µg/mL + TSH 3 ng/mL [3]: 72.7 pmol/mL
Experiment 2: % inhibition of TSH stimulation; 5B3 10 µg/mL [3]: 0%
Experiment 2: % inhibition of TSH stimulation; 5B3 100 µg/mL [3]: 0%
Experiment 2; % inhibition of TSH stimulation; 5B3 10 µg/mL [3]: 0%
Experiment 2; % inhibition of TSH stimulation; 5B3 100 µg/mL [3]: 0%
Experiment 2; cyclic AMP produced; 5B3 10 µg/mL + TSH 3 ng/mL [3]: 107 pmol/mL
Experiment 2; cyclic AMP produced; 5B3 100 µg/mL + TSH 3 ng/mL [3]: 101 pmol/mL
% inhibition of TSH stimulation; 5B3 10 µg/mL ([3]; record 2): 0%
% inhibition of TSH stimulation; 5B3 100 µg/mL ([3]; record 2): 0%
Cyclic AMP produced; 5B3 10 µg/mL + TSH 3 ng/mL ([3]; record 2): 83.6 pmol/mL
Cyclic AMP produced; 5B3 100 µg/mL + TSH 3 ng/mL ([3]; record 2): 88 pmol/mL
% inhibition of TSH stimulation, 5B3 10 µg/mL, wild type TSHR [4]: 0%
% inhibition of TSH stimulation, 5B3 100 µg/mL, wild type TSHR [4]: 3%
Cyclic AMP produced (pmol/mL), 5B3 10 µg/mL + TSH 3 ng/mL, wild type TSHR [4]: 126 pmol/mL
Cyclic AMP produced (pmol/mL), 5B3 100 µg/mL + TSH 3 ng/mL, wild type TSHR [4]: 97.3 pmol/mL
% inhibition of TSH stimulation, 5B3 10 µg/mL, mutated TSHR [5]: 10%
% inhibition of TSH stimulation, 5B3 100 µg/mL, mutated TSHR [5]: 0%
Cyclic AMP produced (pmol/mL), 5B3 10 µg/mL + TSH 3 ng/mL, mutated TSHR [5]: 47 pmol/mL
Cyclic AMP produced (pmol/mL), 5B3 100 µg/mL + TSH 3 ng/mL, mutated TSHR [5]: 56.1 pmol/mL
Mutated/wild type (%) of cyclic AMP produced; 5B3 10 µg/mL + TSH 3 ng/mL [5]: 37%
Mutated/wild type (%) of cyclic AMP produced; 5B3 100 µg/mL + TSH 3 ng/mL [5]: 58%
% inhibition of TSH stimulation, mutated TSHR; 5B3 10 µg/mL [6]: 11%
% inhibition of TSH stimulation, mutated TSHR; 5B3 100 µg/mL [6]: 0%
Mutated/wild type (%) of cyclic AMP produced; test sample: 5B3 10 µg/mL + TSH (3 ng/mL) [6]: 53%
Mutated/wild type (%) of cyclic AMP produced; test sample: 5B3 100 µg/mL + TSH (3 ng/mL) [6]: 57%
% inhibition of TSH stimulation; 5B3 10 µg/mL [7]: 0%
% inhibition of TSH stimulation; 5B3 10 µg/mL; Experiment 1 [7]: 3%
% inhibition of TSH stimulation; 5B3 10 µg/mL; Experiment 2 [7]: 0%
% inhibition of TSH stimulation; 5B3 100 µg/mL [7]: 0%
% inhibition of TSH stimulation; 5B3 100 µg/mL; Experiment 1 [7]: 0%
% inhibition of TSH stimulation; 5B3 100 µg/mL; Experiment 2 [7]: 0%
Cyclic AMP produced; 5B3 10 µg/mL + TSH 3 ng/mL [7]: 53.9 pmol/mL
Cyclic AMP produced; 5B3 10 µg/mL + TSH 3 ng/mL; Experiment 1 [7]: 65.8 pmol/mL
Cyclic AMP produced; 5B3 10 µg/mL + TSH 3 ng/mL; Experiment 2 [7]: 68.6 pmol/mL
Cyclic AMP produced; 5B3 100 µg/mL + TSH 3 ng/mL [7]: 52.6 pmol/mL
Cyclic AMP produced; 5B3 100 µg/mL + TSH 3 ng/mL; Experiment 1 [7]: 68.5 pmol/mL
Cyclic AMP produced; 5B3 100 µg/mL + TSH 3 ng/mL; Experiment 2 [7]: 66.5 pmol/mL
% inhibition of TSH stimulation; 5B3 10 µg/mL [8]: 0%
% inhibition of TSH stimulation; 5B3 100 µg/mL [8]: 13%
Cyclic AMP produced; 5B3 10 µg/mL + TSH 3 ng/mL [8]: 50.5 pmol/mL
Cyclic AMP produced; 5B3 100 µg/mL + TSH 3 ng/mL [8]: 42.6 pmol/mL
Mutated/wild type (%) of cyclic AMP produced; 5B3 10 µg/mL + TSH 3 ng/mL [8]: 94%
Mutated/wild type (%) of cyclic AMP produced; 5B3 100 µg/mL + TSH 3 ng/mL [8]: 81%
% inhibition of TSH stimulation; 5B3 10 µg/mL [9]: 0.3%
% inhibition of TSH stimulation; 5B3 100 µg/mL [9]: 4%
Cyclic AMP produced; 5B3 10 µg/mL + TSH 3 ng/mL [9]: 105 pmol/mL
Cyclic AMP produced; 5B3 100 µg/mL + TSH 3 ng/mL [9]: 101 pmol/mL
Mutated/wild type (%) of cyclic AMP produced; 5B3 10 µg/mL + TSH 3 ng/mL [9]: 102%
Mutated/wild type (%) of cyclic AMP produced; 5B3 100 µg/mL + TSH 3 ng/mL [9]: 107%
% inhibition of TSH stimulation, 5B3 10 µg/mL, wild type TSHR [10]: 0%
% inhibition of TSH stimulation, 5B3 100 µg/mL, wild type TSHR [10]: 0%
Cyclic AMP produced (pmol/mL), 5B3 10 µg/mL + TSH 3 ng/mL, wild type TSHR [10]: 106 pmol/mL
Cyclic AMP produced (pmol/mL), 5B3 100 µg/mL + TSH 3 ng/mL, wild type TSHR [10]: 104 pmol/mL
Substance: 5B3 IgG (antibody)
